T1: glycoprotein of rabies virus strain CVS-11 (rabies virus strain CVS-11, UniProt O92284 20-524)
T1 sequence: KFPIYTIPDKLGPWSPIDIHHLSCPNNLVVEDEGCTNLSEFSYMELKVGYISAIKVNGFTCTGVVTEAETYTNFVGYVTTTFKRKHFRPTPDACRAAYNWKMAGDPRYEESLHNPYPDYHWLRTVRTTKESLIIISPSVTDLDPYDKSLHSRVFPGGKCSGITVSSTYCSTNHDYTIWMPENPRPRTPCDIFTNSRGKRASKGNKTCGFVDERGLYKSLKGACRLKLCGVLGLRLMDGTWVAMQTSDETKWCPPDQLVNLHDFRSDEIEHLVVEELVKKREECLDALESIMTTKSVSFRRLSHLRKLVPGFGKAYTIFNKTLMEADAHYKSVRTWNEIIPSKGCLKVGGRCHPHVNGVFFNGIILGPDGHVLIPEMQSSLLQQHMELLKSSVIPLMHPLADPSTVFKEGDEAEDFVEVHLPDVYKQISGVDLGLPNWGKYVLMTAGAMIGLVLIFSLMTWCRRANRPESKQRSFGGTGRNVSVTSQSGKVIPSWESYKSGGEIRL


What was measured:
[1] = target: purified rabies virus glycoprotein (rabies virus ERA strain) (rabies virus strain ERA, UniProt P03524 20-524); assay: phage ELISA on coated purified G protein (ERA), anti-M13-HRP
[2] = target: T1, glycoprotein of rabies virus strain …; assay: cell-based or functional assay

Binder	OD 492 nm [1]	Potency (IU/ml) [2]
scFv SO57 (scFv) scFv: AMAQVQLVQSGAEVKKPGSSVKVSCKASGGTFNRYTVNWVRQAPGQGLEWMGGIIPIFGTANYAQRFQGRLTITADESTSTAYMELSSLRSDDTAVYFCARENLDNSGTYYYFSGWFDPWGQGTLVTVSSGTGGSGGTGSGTGGSTQSALTQPRSVSGSPGQSVTISCTGTSSDIGGYNFVSWYQQHPGKAPKLMIYDATKRPSGVPDRFSGSKSGNTASLTISGLQAEDEADYYCCSYAGDYTPGVVFGGGTKLTVLGAAA	0.65 OD 492 nm	–
SC04-073 (scFv) scFv: AMAQVQLVQSGGGVAQPGRSLRLSCAASGFTFSSYGMHWVRQAPGKGLEWVADISYDGSNKYYADSVKGRFTISRDNSKNTLYLQMNSLRAEDTAVYYCAKDGLDLTGTIQPFGYWGQGTLVTVSSGTGGSGGTGSGTGGSTDIQLTQSPSFLSASVGDRVTITCRASHSISSWLAWYQQKPGKAPKLLIYKASSLESGVPSRFSGSGSGTDFTLTISSLQPEDFATYYCLQDYNYPRTFGQGTKLEIKRAAA	0.657 OD 492 nm	3 IU/ml
SC04-026 (scFv) scFv: AMAEVQLVESGAEVKKPGESLKISCKGSGYNFPYSWIAWVRQMPGKGLEWMGIIFPGDSDTRYSPPFQGQVTISADNSKSTAYLQWSSLKASDTAMYYCARTSNWNYLDRFDPWGQGTLVTVSSGTGGSGGTGSGTGGSTDVVMTQSPLSLPVTPGEPASISCRSSQSLLHSNGHDYLDWYVQKPGQSPQPLIYLGSDRASGVPDRFSGSGSGTHFTLNISRVEAEDVGVYYCMQSLQTPWTFGQGTKLEIKRAAA	0.212 OD 492 nm	0.3 IU/ml
SC04-010 (scFv) scFv: AMAQVQLVQSGGDLVQPGRSLRLSCAASGFTFSSYGMHWVRQAPGKGLEWVADISYDGSNKYYADSVKGRFTISRDNSKNTLYLQMNSLRAEDTAVYYCAKDGLDLTGTIQPFGYWGQGTLVTVSSGTGGSGGTGSGTGGSTDIQMTQSPSSLSASVGDRVTITCRASQGIRNDLGWYQQKPGKAPKLLIYAASSLQSGVPSRFSGSGSGTDFTLTISSLQPEDFATYYCLQDYNYPRTFGQGTKVEIKRAAA	0.915 OD 492 nm	4 IU/ml
SC04-008 (scFv) scFv: AMAQVTLKESGPTLVKPTQTLTLTCTFSGFSLSTSGVGVGWIRQPPGKALEWLARIDWDDDKYYSTSLKTRLTISKDTSKNQVVLTMTNMDPVDTATYYCARMGFTGTYFDYWGQGTLVTVSSGTGGSGGTGSGTGGSTQAVLTQPSSVSVAPGETASVTCGGDNIGSKSVHWYQKKPGQAPVLVVFDDSDRPSGIPERFSGSTSGNTAALTISRVEAGDEADYYCQVWDSSNDHLYVFGPGTQLTVLSAAA	0.582 OD 492 nm	> 54 IU/ml
SC04-164 (scFv) scFv: AMAEVQLVESGGGVVQPGRSLRLSCAASGFTFSSYGMHWVRQAPGKGLEWVAVISYDGSSKYYADSVKGRFTISRDNSKNTLYLQMNSLRAEDTAVYYCAKGSVLGDAFDIWGQGTMVTVSSGTGGSGGTGSGTGGSTDIQLTQSPSSVSASVGDRVTITCRASQGISSWLAWYQQKPGKAPKLLIYAASSLQSGVPSRFSGSGSGTDFTLTISSLQPEDFATYYCQQANSFPLTFGGGTKVDIKRAAA	0.547 OD 492 nm	0.3 IU/ml
SC04-031 (scFv) scFv: AMAEVQLVESGGGVVQPGRSLRLSCAASGFTFSSYGMHWVRQAPGKGLEWVAVISYDGSNKYYADSVKGRFTISRDNSKNTLYLQMNSLRAEDTAVYYCAKGSVLGDAFDIWGQGTMVTVSSGTGGSGGTGSGTGGSTDIQMTQSPSFVSASVGDRVTITCRASQGISSWLAWYQQKPGKAPKLLIYAASSLQSGVPSRFSGSGSGTDFTLTISSLQPEDFATYYCQQANSFPLTFGGGTKVEIKRAAA	0.721 OD 492 nm	0.7 IU/ml
SC04-038 (scFv) scFv: AMAQVQLVQSGGGVVQPGRSLRLSCAASGFTFSSYGMHWVRQAPGKGLEWVAVISYDGSSKYYADSVKGRFTISRDNSKNTLYLQMNSLRAEDTAVYYCAKGSVLGDAFDIWGQGTMVTVSSGTGGSGGTGSGTGGSTDIQLTQSPSSVSASVGDRVTITCRASQGISGWLAWYQQKPEKAPKLLIYAASSLQRGVPSRFSGSGSGTDFTLTISSLQPEDFATYYCQQANSFPPTFGQGTRLEIKRAAA	0.653 OD 492 nm	2 IU/ml
SC04-097 (scFv) scFv: AMAEVQLVQSGGHLVQPGGSLRLSCAASGFTFSSYAMSWVRQAPGKGLEWVSLIIGSGRSTYYADSVKGRFTISRDNSKNTLYLQMNSLRAEDTAVYYCAKTASNLGRGGMDVWGQGTTVTVSSGTGGSGGTGSGTGGSTDIQLTQSPSSLSASVGDRVTITCRASQGISSHLAWYQQKPGKAPKLLIYAASSLQSGVPSRFSGSGSGTEFTLTISSLQPEDFATYYCQQFNSYPITFGQGTRLEIKRAAA	0.835 OD 492 nm	0.2 IU/ml
SC04-021 (scFv) scFv: AMAEVQLVESGGGVVQPGRSLRLSCAASGFTFSSYGMHWVRQAPGKGLEWVAVISYDGSSKYYADSVKGRFTISRDNSKNTLYLQMNSLRAEDTAVYYCAKGSVLGDAFDIWGQGTMVTVSSGTGGSGGTGSGTGGSTDIQMTQSPFSLSASVGDRVTITCRASQGIGSSLAWYQQKPGKAPKLLIYAASSLQSGVPSRFSGSGSGTDFTLTISSLQPEDFATYFCLQHHDYPLTFGGGTKLEIKRAAA	0.278 OD 492 nm	1.3 IU/ml
SC04-018 (scFv) scFv: AMAEVQLVESGPGLVRPSGTLSLTCAVSGGSISSSNWWSWVRQPPGKGLEWIGEIYHSGSTNYNPSLKSRVTISVDKSKNQFSLKLSSVTAADTAVYYCARVSVTTGAFNIWGQGTMVTVSSGTGGSGGTGSGTGGSTQPVLTQPLSASGTPGQRVTISCSGDTSNIGSNTVHWYQRLPGTAPKLLIHNNNQRPSGVPDRFSGAKSGTSASLAISGLQSEDEADYFCAAWDDNLNGYVFGTGTKVTVLGAAA	0.247 OD 492 nm	0.1 IU/ml
SC04-040 (scFv) scFv: AMAQVQLVQSGGGVVQPGRSLRLSCAASGFTFGSYGMHWVRQAPGKGLEWVATIFYDGSYKDYADSVKGRFTISRDNSKNTLYLQMNSLRAEDTAVYYCAKGSKVGDFDYWGQGTLVTVSSGTGGSGGTGSGTGGSTQPVLTQPPSVSVAPGQTARISCGGDNIGTNTVQWYQQKPGQAPVLVVYDDSDRPSGIPERFSGSNSGDTATLTISRVEAGDEADYYCQVWDDSSDLVVFGGGTKVTVLGAAA	0.74 OD 492 nm	0.3 IU/ml
SC04-001 (scFv) scFv: AMAEVQLVESGGGVVRPGGSLRLSCAASGFTFDDYGMSWVRQAPGKGLEWVSGINWNGGSTGYADSVKGRFTISRDNAKNSLYLQMNSLRAEDTAVYYCAKGLYGELFDYWGQGTLVTVSRGGGGSGGGGSGGGGSSELTQDPAVSVALGQTVRITCQGDSLRSYYASWYQQKPGQAPVLVIYGKNNRPSGIPDRFSGSSSGNTASLTITGAQAEDEADYYCNSRDSSGNHVVFGGGTKLTVLGAAA	0.828 OD 492 nm	1.3 IU/ml
SC04-103 (scFv) scFv: AMAQVQLQESGGGVVQPGRSLRLSCAASGFTFSSYGMHWVRQAPGKGLEWVAVILYDGSDKYYADSVKGRFTISRDNSKNTLYLQMNSLRAEDTAVYYCAKVAVAGESFDSWGRGTLVTVSSGTGGSGGTGSGTGGSTDIQLTQSPSSVSASVGDRVTITCRASQGISSWLAWYQQKPGKAPRSLIYDASSLQSGVPSRFSGSGSGTDFTLTISSLQPEDFATYYCQQADSFPITFGQGTRLEIKRAAA	0.606 OD 492 nm	0.3 IU/ml
SC04-104 (scFv) scFv: AMAQVQLQESGGGVVQPGRSLRLSCAASGFTFSSYGMHWVRQAPGKGLEWVATISYDGNVKDYADSVKGRFTISRDNSKNTLYLQMNSLRTEDTAVYYCAKIVVVTALDAFDIWGQGTMVTVSSGTGGSGGTGSGTGGSTDIQLTQSPSTLSASVGDRVTITCRASQILGHWLPLSWYQQKPGKAPKLLISKASSLESGVPPRFSGSGSGSDFTLTISSLQPDDFATYYCLQYHEYPLTFGGGTKLEIKRAAA	0.566 OD 492 nm	1 IU/ml
SC04-098 (scFv) scFv: AMAEVQLVQSGGGAVQPGRSLRLSCAASGFTFSSYGMHWVRQAPGKGLEWVAVILYDGSDKFYADSVKGRFTISRDNSKNTLYLQMNSLRAEDTAVYYCAKVAVAGTHFDYWGQGTLVTVSSGTGGSGGTGSGTGGSTDIQMTQSPSSLSASVGDRVTITCRASQGIRNDLGWYQQKPGKAPKLLIYAASSLQSGVPSRFSGSGSGTDFTLTISSLQPEDFATYYCQQLNSYPPTFGGGTKVEIKRAAA	0.798 OD 492 nm	9 IU/ml
SC04-060 (scFv) scFv: AMAQVQLVESGPGLVKASETLSLTCTVSDGSISSFYWSWIRQPPGKGLEWVGEIQDTGRTNYNPSLKSRVTISLDTSKNQFSLTLSSVTAADTAVYYCAREKEKYSDRSGYSYYYYYMDVWGKGTTVTVSSGTGGSGGTGSGTGGSTDIQMTQSPSSLSASVGDRVTITCRASQGISTYLNWYQQKPGKAPNLLIYGASNLQSGVPSRFSGSESGTDFTLTISSLQPEDFATYYCQQSFTTPRTFGQGTKLEIKRAAA	0.923 OD 492 nm	0.2 IU/ml

From US20070072177A1 (CRUCELL HOLLAND B V, published 2007)
